Results from patent US20120020975A1 (published 2012).

Target: T1, mouse PCSK9, mPCSK9-8xHIS (mouse, UniProt Q80W65 35-694, limits assumed)
T1 construct: also called His-tagged mouse PCSK9; biotinylated-mouse PCSK9
Assay: KinExA solution equilibrium
Source text: Equilibrium dissociation constant (KD) were obtained from nonlinear regression of the two sets of competition curves using a one-site homogeneous binding model. The KinExA® Pro software was employed in the analysis.

B1: 16F12, anti-PCSK9 huIgG4 (antibody, V domains shown)
VH: QVHLVESGGGVVQPGRSLRLSCAASGFTFNSFGMHWVRQAPGKGLEWVALIWSDGSDEYYADSVKGRFTISRDNSKNTLYLQMNSLRAEDTAVYYCARAIAALYYYYGMDVWGQGTTVTVSS
VL: QSVLTQPPSVSAAPGQKVTISCSGSSSNIGNNFVSWYQQLPGTAPKLLIYDYNKRPSGIPDRFSGSKSGTSATLGITGLQTGDEADYYCGTWDSSLSAYVFGTGTRVTVLQ
notes: also called 16F12.1
fold lower affinity than to human and cyno PCSK9: 10 to 250 fold
